Source: patent publication US20170291954A1

Biological target: mesothelin on K562.meso cells (erythroblast cell line stably expressing mesothelin)
Assay: cell-based or functional assay

CAR-T cell cytolysis at an Effector:target cell ratio of 10:1 (Cr51 release), K562meso: 95%
Substance: SS1 chimeric antigen receptor (mesothelin specific) on transduced T cells
